In the DeepSol protein solubility set:

Assay: soluble on expression in E. coli; label from the status in PepcDB or PDB records

| Sequence | soluble on expression in E. coli |
| --- | --- |
| MGSDKIHHHHHHMSLQSLKINFAEWLLLKVKYPSQYWLGAADQPVKAAAHQKKIILTLLPSHDNLGDHAIAYASKAFLEQEYPDFDIVEVDMKDIYKSAKSLIRSRHPEDMVFIIGGGNMGDLYRYEEWTRRFIIKTFHDYRVVQLPATAHFSDTKKGRKELKRAQKIYNAHPGLLLMARDETTYQFMKQHFQEKTILKQPDMVLYLDRSKAPAEREGVYMCLREDQESVLQEEQRNRVKAALCEEFGEIKSFTTTIGRRVSRDTREHELEALWSKLQSAEAVVTDRLHGMIFCALTGTPCVVIRSFDHKVMEGYQWLKDIPFMKLIEHPEPERVTAAVNELLTKETSRAGFPRDVYFKGLRDKISGEAQ | not soluble |
| MAAEKTLRTCEKGHEYYKSSDCPTCPTCEKERTPQEGFLSLLSAPARRALEHHGIHTVEELSKYSEKEILKLHGMGPASLPKLRKALEESGLSFK | not soluble |
| SMPKDVGILALEVYFPAQYVDQTDLEKYNNVEAGKYTVGLGQTRMGFCSVQEDINSLCLTVVQRLMERIQLPWDSVGRLEVGTETIIDKSKAVKTVLMELFQDSGNTDIEGIDTTNACYGGTASLFNAANWMESSSWDGRYAMVVCGDIAVYPSGNARPTGGAGAVAMLIGPKAPLALERGLRGTHMENVYDFYKPNLASEYPIVDGKLSIQCYLRALDRCYTSYRKKIQNQWKQAGSDRPFTLDDLQYMIFHTPFCKMVQKSLARLMFNDFLSASSDTQTSLYKGLEAFGGLKLEDTYTNKDLDKALLKASQDMFDKKTKASLYLSTHNGNMYTSSLYGCLASLLSHHSAQELAGSRIGAFSYGSGLAASFFSFRVSQDAAPGSPLDKLVSSTSDLPKRLASRKCVSPEEFTEIMNQREQFYHKVNFSPPGDTNSLFPGTWYLERVDEQHRRKYARRPV | soluble |
| MAHHHHHHMSGRCFSKSLESDVDSAAAAESSLSATEVSTDGYRTGKQPRHVAFLLEKDLKETDTEEVPRAAFAGRRGGAGARPTEEQWSWSGRAEADALRQRALQCGEDFVRVASGLGYEVVAHTPTAFLKRGMTEKTAALFGVAQPEKQGGTGLAVARSATARASTGAVLLSSPSAAETTVTLAAPFSSGGSSVFPRKGELDSCSSRSSSPGTEDQVGMVPVLSPLLQGSEPGQRRLSTDASLRALEVQTPRTTGAHAGVYRYPATIASLHPLQDSTPNSVADGNGVHTSPHRSSRTGFGAEHHANDGANPPGPAIANSTRAVHWTPTTRHPSPSRGSPASHRALTPRTVFPTGNHPVTASLMVPGQQSDAFAVRLSIMDVTSSRTNSNTNTSMSTEHLNGHEFVNVGGSQNTNNRFFTSSTDALNTPAVRMTDDEDWLRATGRLIQ | not soluble |
| MGSDKIHHHHHHGTSGTSKSSKTQLTGQSSDGDYEGVIKSGHYQTSKSRGVTNSQDSGNTYNVKSFENGMLGVSKKVFSTKSYVFQEGQYLSSSTVQNWLDRKTKSNPTGLNPKSNGSTSPTKRNPVYIQALEEQDYMTQKNNKLSLGGVTIGIAVNSVDYYKKTQYGATYETKITKAEGEAYAKKAANTVLKRLRKKSALKNVPIVIAIYRQASNDSLVGGNFIAYSENKGSATTVSKWNALSEKNYVFPIESGSSSPNSNDETSFTNFKSQVENFFPNLSGVTAQAHYSGNTLTGMHVNITTQFYSQTEIISFTQYLQTAAQKYLPSSVPIDITVSSTDSVQSFLSRSSGAKKFTSHVFNSY | not soluble |
| MGSDKIHHHHHHMLEGKVAVVTGGGQGIGAAIAQLFAENGMKVVIAEIDEEAGVEREEMLRERGLDVTFVKTDVADENSVKNMVRKTVEIYGGVDVLVNNAAVMSVKSIFERPLEEWERVIRVNLTGPYICSRYCAEEMIKRGGGVIINIASTRAFQSEPDTEPYSASKGGLVALTHSLAVSLSRYHIRVVSISPGWIETSEWKKKSLRKKPDLRPIDHEQHPAGRVGNPLDIAHLCVFLADDEKAGFITGTNFIVDGGMTVKMIYEE | not soluble |
| MVPDRREQSKAKERLLEREEALAKHMSEREKRPPPKIDPPPSPKAPEPSKRVLKEKQAPLFVDTAVEGTLPPLSLLDPAEVKQKSYSPESLEAMSRLLEIKLKEFGVEVSVDSVHPGPVITRFEIQPAAGVKVSRISNLAKDLARSLAVISVRVVEVIPGKTTVGIEIPNEDRQMVRFSEVLSSPEYDEHKSTVPLALGHDIGGRPIITDLAKMPHLLVAGTTGSGKSVGVNAMLLSILFKSTPSEARLIMIDPKMLELSIYEGIPHLLCPVVTDMKEAANALRWSVAEMERRYRLMAAMGVRNLAGFNRKVKDAEEAGTPLTDPLFRRESPDDEPPQLSTLPTIVVVVDEFADMMMIVGKKVEELIARIAQKARAAGIHLILATQRPSVDVITGLIKANIPTRIAFQVSSKIDSRTILDQGGAEQLLGHGDMLYLPPGTGLPIRVHGAFVSDDEVHRVVEAWKLRGAPDYIEDILAGVDEGGGGGGSFDGGDGSGEGSEDDPLYDEAVRFVTESRRASISAVQRKLKIGYNRAARMIEAMEMAGVVTPMNTNGSREVIAPAPVRDKLHHHHHH | soluble |
| MTCEGRRTMTQPISLGHRMSLIDLYDLRMPQRTGTYVLHEENLAIIETGPSPSVPHLLAGLKALHIDPADIRYIIVTHIHLDHAGGVGVLLEHCPNATVIVHPKGKRHLADPSRLIAGAKAVYGEQFDALFDPIVPVPEERLLVKEDGETLVLSAERTLTFYDTPGHANHHFSIYDSYSGGVFTGDTIGVFYPQLQEAGLAFCLPSTSPNQFNPEAMKQSAERLEKLNPTRIYFGHFGALDQPEEAFRQLRFWLPKFVAAGKEVIARHPEAPAAEQAKAVTKLLHNDITAFLNECSIPASSPVYKVIELDLQVCAMGIIDYWRKQRLEHHHHHH | soluble |
| MGSDKIHHHHHHACNTSPREPKAMEANDGSVTTVESNGNKLTVCDLSAVKDTIEVPLSEFVEDCRIVRFETSEEAYFKAWFINATDKHIGIRQGNQDVFKLFDRDGKFLYNVGSVGSGPGEYDTTLYDECIDEKNGHIFFTPFVGKRIMMYDINGQWIKDIPLPMQINKAKIWVNEDGSLSVVHMPFEEGEPLAFRVDTEGNILNQIPATAATKVMNFDGEVFSYRNCGDFDFFHTGIDTLFTYDPAGNKLLPKFTMTFPNMNEKPIHLYYRLPHHFIVTYWGNKGEGGGDVLVDTEKNASSYFRLVNDFYGNLPIPAPGHSFYRGYFIQSLEPGQLIEKIEKQIASGKCSGQDEQKLKELAATLTENDNNVLFIGKVKK | not soluble |
| MSLGRGMQKQRFCLDTSAFTEPSVRKALGVKTVTELTDKVMDLIAEARIKLNISCHIPYPTVYNELMGFLENENCPRDVIVKVDTWLVKKTPNRYEIKIPSEIFYEYVKDLRERINKGMRIGEEHIIKATDMVYELSKKHPEMGKNEIINKVLSKTINTFRNKYRSALRVGTLDSAPDLDVLLLAKELDAAVVASDGGIEKWAQRLGLRFVDASDFPFMLEEYLKHNDRHLRIKYEGHHHHHH | soluble |
| MSLKLHHLNDSRSFRILWLLEEIGQPYEIIRYQRDKETHLAPETLKDIHPLGKSPVIELDGKIIAESGSITEVLIKEFAPHLAPNEKSPEYIDYLQWIHFSESSAMLPLLLKIFNEFETRSGTDLKFLKNYAEIEFNKVFSYLNNHLNNKKFLVEDRLTGADFMLGFVVKGALNLLKSSGAFPHIESYITNIENQISYKRALDIDANEGHHHHHH | soluble |
| MTLEKKEYGAPGFWPGSMIGRVHAFETPAPLTRAQLDRLRDEFFETRTEGHLEIWTAIRAASHAQEAGDDELAYAIITAVGILPAEVGPAGEGLGERIPFAEQPLDRLLGMICGCCFPAFTRYRTLERVYDQRGFLYETPKECIATPSNVLPDESTEASAR | not soluble |
| GTIITVTAQANEKNTRTVSTAKGDKKIISVPLFEKEKGSNVKVAYGSAFLPDFIQLGDTVTVSGRVQAKESGEYVNYNFVFPTVEKVFITNDNSSQSQAKQDLFGGSEPIEVNSEDLPF | soluble |
| MSLAQISSLFVTRLYHAPLSDHGPAIDAEEMESSCYAIAEDDEAGQGWCEENGYPGYTSYASLTDLPWRFPIFADLVKSLDAHVAAFAEDLEFDLDGRALELEDLWINILPEGGSHASHIHPHSVISGTTYVSMPGGTSALKLEDPRHAMMMAAPARRKTARDELRQFIYVTPAVGDVLLWESWLRHEVPMNMSEDDRISVSFNYRWAEGHHHHHH | soluble |
| MKVEILPFGNMDQWVTREIKESGIIGGNTKKVYAIGPTETIVGAKPYANKGGSPWGTSNVMARVSGITKTNTSVFPETRGDGFCARLDTRMESVKVLGIVDITVLAAGSMFLGTVHEPIKSTKNPNKMLQMGIPFTDRPSAIQFDYKVKMSDRENRIRATGFSKITDVPGKDFPAVILLLQKRWEDAKGNVYAKRIGTMVNYYYHSTDWKNGSKYDIMYGDITKDPAYKAHMMRLQASEYFTVNSKGESVPIHEVAWGEADDVPTHMILQFTSSHGGAYIGSPGNSLYIDNVKLIYLEHHHHHH | soluble |
| DERVFEQELENGLRLFIIPKPGFQKTFVTYTTQFGSLDNQFKPLGQDQFVTVPDGVAHFLEHKLFEKEEEDLFTAFAEDNAQANAFTSFDRTSYLFSATDNIENNIKRLLTMVETPYFTKETVDKEKGIIAEEIKMYQEQPGYKLMFNTLRAMYQRHPIRVDIAGSVESIYDITKDDLYLCYETFYHPSNMVLFVVGDVNPEEICRIVKQHEDARNKVNQPKIER | not soluble |
| MAQFSIFPEQNSLQDLLNIHSVQEDTQYKSMGIYDLKTCEIPMRPPTHQNPAQKEHNTMEDEMMAVLNSFSRRIEIMSAPEPKAFRYYFEISPPPKPEAPKSQLGLGDLSEESYPLTPEPIQLDTCLTWSPVELQFDPFAEPEPIFYNEEMDSGPTPEPIPDIFESPRSEVEAVKMFRSEVIYEDFAEE | not soluble |
| MGSDKIHHHHHHMNSALYVGKVRHRRFTPVTHRFDYALFMALIDLDEIPALPHAGIALERFAPASFYRGDYLGGGDIKTKAQDRIAELTGERLTGKVLLLCQLRYLGCYFNPVNFYYLYDEHNQLRWLLAEVRNTPWNERHTYAVVPDGSTTVSKAFHVSPFNPMDMVYHWRLTPPVERLRIHIENHRQGREFDATLLLHRQPLTRAALRKQLWSLPLMTIKIACTIYWQALKLWIKRSPVYPHPQSGRKDNP | not soluble |
| MGHHHHHHGGHMSLKNYFLQRRTLMTEQLPNCPECGSAYAYEDRGLFICPECGHEWSPTEEVAEEGLVVKDSNGNLLADGDSVTVIKDLKVKGASGAIKQGTKVKNIRLVEGDHNIDCKVDGFGPMKLKSEFVKKNEGGS | soluble |
| MGSDKIHHHHHHMSVRVNNLLKLPSLREATVLSGKNQLDTSVASLSFLEVSDMSLFSEKLHKTNEYHAGEILIGSFCAIRHDVVKQCETIRHLHELGEVGLILYYVGIIVPKVAEEVIQLADSLGFILIQMPKNDPTLRYNEVIYEVMKLLVNKNKMASFATDLLEKVSLLPEQNRSVEMTLKILSDFLKVNIALTTYTNEIISTINWPRSTKLPLTKLLYQSQEKVALGETTYFITSQKLPQKDGQTLKLYFIREEEQLTSFEMNQAVEVVQMALNLWGKNYDEVSEYALVQAIINDESDKMYQLAKKLMIDISSVETMWLLPIWQQGQEIHAIQQDLKDFLRYYYQTTIVQQTENYLIVLLGNYLHKQPEATISKEYLQATDYQDYLGEIILCPKVRNTTEVRVSYQTANQVAPFLKRVYPQRKVLSIAEIRTVQQMMTCLQAGEEAIQQRLAVIQPLLKESEQLMTLGTFLLDASSDFNECGERLFVHKNTVKYRISKINEALGYDMTNAAEAYEVYLAMILYRLVTNE | not soluble |
